# Experiments:
# [1] = biological target: PA28γ (endogenous) (human (endogenous in U2OS, HeLa, U937)) (UniProt P61289); test: co-IP
# [2] = biological target: PIP30/FAM192A (endogenous) (human (endogenous in U2OS, HeLa, U937)) (UniProt Q9GZU8); test: co-IP
# Chain of UniProt Q9GZU8 (Q9GZU8 whole entry): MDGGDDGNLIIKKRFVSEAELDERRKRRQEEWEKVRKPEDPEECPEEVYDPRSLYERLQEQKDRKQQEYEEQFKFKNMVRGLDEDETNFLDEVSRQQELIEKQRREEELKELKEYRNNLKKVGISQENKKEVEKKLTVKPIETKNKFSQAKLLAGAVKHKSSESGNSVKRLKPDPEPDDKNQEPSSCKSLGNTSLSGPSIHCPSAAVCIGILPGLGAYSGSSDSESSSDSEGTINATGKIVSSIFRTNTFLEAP
Substance,percent coprecipitated [1],percent coprecipitated [2]
PIP30/FAM192A (endogenous) (from UniProt Q9GZU8 1-254) (natural protein),> 70%,
PA28γ (endogenous) (from UniProt P61289 1-254) (natural protein),,> 70%
